Assay [1] concerns the target T1, CALRdel52 (mutant calreticulin, 52 base pair deletion, Type 1) expressed with MPL on engineered cancer cells (UniProt P27797 18-417).
T1 sequence (looked up): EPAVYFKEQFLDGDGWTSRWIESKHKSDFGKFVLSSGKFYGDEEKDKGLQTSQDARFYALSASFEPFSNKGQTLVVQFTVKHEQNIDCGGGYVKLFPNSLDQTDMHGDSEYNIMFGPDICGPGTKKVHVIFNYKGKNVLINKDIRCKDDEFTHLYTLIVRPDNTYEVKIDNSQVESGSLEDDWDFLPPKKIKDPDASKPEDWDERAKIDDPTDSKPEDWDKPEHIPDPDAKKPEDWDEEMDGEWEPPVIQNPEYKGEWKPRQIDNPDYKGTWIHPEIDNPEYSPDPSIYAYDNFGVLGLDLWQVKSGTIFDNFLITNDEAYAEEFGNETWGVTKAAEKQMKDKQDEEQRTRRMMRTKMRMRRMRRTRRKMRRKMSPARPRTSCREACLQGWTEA
The assay is described as follows: cell-based or functional assay.

In assay [2] the target is T2, CALRins5 (mutant calreticulin, 5 base pair insertion, Type 2) expressed with MPL on engineered cancer cells (UniProt P27797 18-417).
T2 sequence (looked up): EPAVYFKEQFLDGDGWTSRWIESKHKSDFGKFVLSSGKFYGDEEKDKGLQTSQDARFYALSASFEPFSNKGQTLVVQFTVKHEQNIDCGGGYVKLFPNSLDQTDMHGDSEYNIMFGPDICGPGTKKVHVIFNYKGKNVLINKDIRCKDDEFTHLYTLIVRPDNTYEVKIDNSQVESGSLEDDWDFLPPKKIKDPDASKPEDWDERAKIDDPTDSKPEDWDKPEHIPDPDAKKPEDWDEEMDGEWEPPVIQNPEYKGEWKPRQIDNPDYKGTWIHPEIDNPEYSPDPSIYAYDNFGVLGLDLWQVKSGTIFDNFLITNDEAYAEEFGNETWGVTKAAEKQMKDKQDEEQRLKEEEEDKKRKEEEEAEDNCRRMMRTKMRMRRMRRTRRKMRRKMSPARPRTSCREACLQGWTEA
Nature of the assay: cell-based or functional assay.

Assay [3] addresses T3, Flag/6xhis-CALRdel52 (CALRW12.007) (human, UniProt P27797 18-417).
T3 construct: also called human CALRdel52
T3 sequence (looked up): T1 sequence (looked up)
The assay is described as follows: SPR, forced degradation: pH 8.5.

Assay [4] concerns the target T4, Avi/his-CalR-Ins5 (CALRW28.004) (human, UniProt P27797 18-417, limits assumed).
T4 construct: also called human CALRins5
T4 sequence (looked up): T2 sequence (looked up)
Nature of the assay: SPR, forced degradation: pH 8.5.

The target of assay [5] is T5, CD3EG-HSA-6xHis (CD3W220.002) (human, UniProt P07766 22-118; P09693 23-103).
T5 construct: also called human CD3; not shown: human serum albumin (HSA); 6xHis tag
T5 sequence (P07766 other isoform, or with tags, fused parts or gaps): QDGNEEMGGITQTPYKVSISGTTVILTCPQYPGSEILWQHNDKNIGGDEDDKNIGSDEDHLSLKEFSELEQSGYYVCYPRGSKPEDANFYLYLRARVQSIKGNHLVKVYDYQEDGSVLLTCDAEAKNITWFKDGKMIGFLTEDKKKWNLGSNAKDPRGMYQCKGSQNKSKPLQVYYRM
The assay is described as follows: SPR, forced degradation: pH 8.5.

Assay [6] concerns the target T6, wild-type calreticulin (CALRwt) expressed with MPL in engineered cancer cells (UniProt P27797 18-417, limits assumed).
T6 construct: whole, on cells; also called OCI-M2 MPL CALRwt
T6 sequence (looked up): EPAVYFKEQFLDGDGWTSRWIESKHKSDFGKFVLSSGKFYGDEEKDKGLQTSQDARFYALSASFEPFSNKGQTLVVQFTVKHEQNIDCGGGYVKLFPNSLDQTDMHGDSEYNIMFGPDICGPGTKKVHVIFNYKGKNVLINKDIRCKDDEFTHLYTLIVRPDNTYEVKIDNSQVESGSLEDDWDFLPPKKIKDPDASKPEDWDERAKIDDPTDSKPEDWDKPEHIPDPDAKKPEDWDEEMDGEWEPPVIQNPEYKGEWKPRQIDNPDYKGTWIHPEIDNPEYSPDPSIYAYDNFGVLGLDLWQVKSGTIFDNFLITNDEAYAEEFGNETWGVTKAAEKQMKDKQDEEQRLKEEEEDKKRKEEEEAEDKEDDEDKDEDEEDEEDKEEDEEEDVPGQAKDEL
Nature of the assay: flow cytometry on OCI-M2 MPL CALRwt cells, 1 h at 37 C, AF647 secondary antibody, Geometric Mean.

Assay [7] has as its target T2, CALRins5 (mutant calreticulin, 5 base …). The assay is described as follows: flow cytometry on ELF-153 MPL CALRins5 cells, 1 h at 37 C, AF647 secondary antibody, Geometric Mean. As to the method:
FIGS. 4A-4F depict graphs of CALRmutxCD3 bispecific antibody C3CRB73 binding to cells CALRmut-negative or CALRmut-positive. Flow cytometry was used to evaluate C3CRB73 binding to CALRmut-negative and CALRmut-positive cancer cells in vitro. C3CRB73 and NullxCD3 control were tested on a panel of cell lines, engineered to express MPL and CALRmut, after 1 hour 37° C. incubation, with subsequent incubation with secondary AF647-labeled antibody. Geometric mean fluorescence intensity of AF647 was measured to determine antibody binding. […] Abbreviations: CALR, calreticulin; CALRmut, mutant calreticulin; CD, cluster of differentiation; del, deletion; ins, insertion; MPL, thrombopoietin receptor; spFv, stapled single chain fragment variable; wt, wild type.

For assay [8] the target is unchanged. The assay is described as follows: flow cytometry on ELF-153 MPL CALRins5 cells, 1 h at 37 C, AF647 secondary antibody, Geometric mean. The method, then:
FIGS. 27A-27F depict binding of different CALRmutxCD3 antibodies to CALRmut-negative or CALRmut-positive cells. Flow cytometry was used to evaluate CALRmutxCD3 binding to CALRmut-negative and CALRmut-positive cancer cells in vitro. CALRmutxCD3 antibodies were tested on a panel of cell lines, engineered to express MPL and CALRmut, after 1 hour 37° C. incubation, with subsequent incubation with secondary AF647-labeled antibody. Geometric mean fluorescence intensity of AF647 was measured to determine antibody binding.

B1: C3CRB73 CALRmut x CD3 bispecific antibody (bispecific antibody, human IgG1, kappa, L234A L235A)
heavy: EVQLLESGGGLVQPGGSLRLSCAVSGIDLSNNAISWVRQAPGKGLEYVGVIGNTGDTYYADSAKGRFTISRDSSKTTLYLQMNSLRAEDTAVYFCVRGPPSYSSSVKNIWGQGTLVTVSSASTKGPSVFPLAPSSKSTSGGTAALGCLVKDYFPEPVTVSWNSGALTSGVHTFPAVLQSSGLYSLSSVVTVPSSSLGTQTYICNVNHKPSNTKVDKKVEPKSCDKTHTCPPCPAPEAAGGPSVFLFPPKPKDTLMISRTPEVTCVVVSVSHEDPEVKFNWYVDGVEVHNAKTKPREEQYNSTYRVVSVLTVLHQDWLNGKEYKCKVSNKALPAPIEKTISKAKGQPREPQVYTLPPSREEMTKNQVSLSCAVKGFYPSDIAVEWESNGQPENNYKTTPPVLDSDGSFFLVSKLTVDKSRWQQGNVFSCSVMHEALHNRFTQKSLSLSPGK
light: DIQMTQSPSSVSASVGDRVTITCQSSQSVYNNNWLSWLQQKPGKAPKRLIYDASKLESGVPSRFSGSGSGTDFTLTISSVQPEDAATYYCAGGFTGNVYTFGGGTKVEIKRTVAAPSVFIFPPSDEQLKSGTASVVCLLNNFYPREAKVQWKVDNALQSGNSQESVTEQDSKDSTYSLSSTLTLSKADYEKHKVYACEVTHQGLSSPVTKSFNRGEC
scFv: DIQMTQSPSSLSASVGDRVTITCRARQSIGTAIHWYQQKPGCAPKLLIKYASESISGVPSRFSGSGSGTDFTLTISSLQPEDFATYYCQQSGSWPYTFGQGTKLEIKGGGSGGSGGCPPCGGSGGEVQLVESGGGLVKPGGSLRLSCAASGFTFSRYNMNWVRQAPGKGLEWVSSISTSSNYIYYADSVKGRFTFSRDNAKNSLDLQMSGLRAEDTAIYYCTRGWGPFDYWGCGTLVTVSSEPKSSDKTHTCPPCPAPEAAGGPSVFLFPPKPKDTLMISRTPEVTCVVVSVSHEDPEVKFNWYVDGVEVHNAKTKPREEQYNSTYRVVSVLTVLHQDWLNGKEYKCKVSNKALPAPIEKTISKAKGQPREPQVYTLPPSREEMTKNQVSLWCLVKGFYPSDIAVEWESNGQPENNYKTTPPVLDSDGSFFLYSKLTVDKSRWQQGNVFSCSVMHEALHNHYTQKSLSLSPGK
notes: IgG1-AAS; also called JNJ-88549968; CALRB421 Fab x CD3 spFv
In the case of B1, in assay [1], the “cytotoxicity EC50 (nM), whole blood of CALRmut MPN patients, ELF-153 MPL CALRdel52” value came to 0.66 nM and the “cytotoxicity EC50 (nM), whole blood of healthy donors, ELF-153 MPL CALRdel52” value was 0.51 nM. Besides, in assay [2], the “cytotoxicity EC50 (nM), whole blood of CALRmut MPN patients, ELF-153 MPL CALRins5” value came out at 0.64 nM and the “cytotoxicity EC50 (nM), whole blood of healthy donors, ELF-153 MPL CALRins5” value was found to be 0.32 nM. For the same molecule, in assay [3], the “% Active” value was 104% and the equilibrium dissociation constant (Kd) amounted to 0.251 nM. Also, in assay [4], the “% Active” value was 97% and the affinity, expressed as Kd, was 0.0313 nM. Also, in assay [5], the “% Active” value amounted to 93% and binding was put at a Kd of 0.28 nM. The binding result in assay [6] is listed as “no binding (tested: 100 nM)”. In addition, the “EC50 (read off the curve)” value in assay [7] was roughly 4 nM. The “EC50 (read off the curve)” value in assay [8] was roughly 5 nM.
